Consider six molecules from publication PMC8546571, “Methylation of PhoP by CheR Regulates Salmonella Virulence” (mBio, 2021).

Where a chain is given by its changes, count along the chain named. Names and notes keep the numbering of the source.

Data set [1] relates to PhoP from cheR-overexpressing cells (methylated PhoP) (Salmonella enterica serovar Typhimurium 14028S). Description: ITC. The following applies: EMSA: 25 mM Tris-HCl pH 8.0, 50 mM KCl, 5 mM MgCl2, 0.5 mM EDTA, 10% glycerol, room temp 20 min, 1.6 pmol probe in 10 ul; ITC: 6.15 uM DNA into 0.6 uM PhoP …. (In general: A gel shift assay detects complexes by their altered migration in electrophoresis.)

Data set [2] has as its system PhoP from control Salmonella cells (Salmonella enterica serovar Typhimurium 14028S). Description: ITC. Conditions: EMSA: 25 mM Tris-HCl pH 8.0, 50 mM KCl, 5 mM MgCl2, 0.5 mM EDTA, 10% glycerol, room temp 20 min, 1.6 pmol probe in 10 ul; ITC: 6.15 uM DNA into 0.6 uM PhoP ….
Data set [3] deals with the molecule itself. Briefly: cross-linking; purified His-tagged PhoP incubated with 1 mM DSS in 50 mM HEPES-Na pH 7.5, 150 mM NaCl, 10 mM MgCl2, 20% glycerol, 0.05% Tween 20, 25°C, 30 min; Western blot with anti-His antibody; monomer to dimer. (In general: A western blot detects proteins with antibodies after separation by electrophoresis.)

One may read the Kd as a measure of binding affinity in units of concentration. Read a low Kd as higher affinity. Consider “phoP promoter DNA / PhoP box consensus (ITC)”, for which the results for the Kd in data set [1] and in data set [2] were 476 pM and 122 pM, respectively.

B1: wild-type PhoP (6×His-tagged, recombinant) (natural protein)
chain: MMRVLVVEDNALLRHHLKVQLQDSGHQVDAAEDAREADYYLNEHLPDIAIVDLGLPDEDGLSLIRRWRSSDVSLPVLVLTAREGWQDKVEVLSSGADDYVTKPFHIEEVMARMQALMRRNSGLASQVINIPPFQVDLSRRELSVNEEVIKLTAFEYTIMETLIRNNGKVVSKDSLMLQLYPDAELRESHTIDVLMGRLRKKIQAQYPHDVITTVRGQGYLFELR
notes: PhoP, response regulator of the PhoP/PhoQ two-component system, S. Typhimurium strain 14028S; phoP PCR amplified from genomic DNA and cloned into pQE80; also called PhoP WT; source: E. coli BL21, purified (Ni-NTA); not shown: His6, C-terminal, kept
For the molecule B1, the binding result in data set [3] is recorded as “binds”.

B2: PhoP E8A variant (natural protein)
chain: B1 chain with E8A
notes: PhoP, S. Typhimurium strain 14028S, with E8A; source: E. coli BL21, purified (Ni-NTA); not shown: His6, C-terminal, kept
On to B2, for which, in data set [3], the binding result was “binds”.

B3: PhoP purified from the bacteria with an endogenous level of cheR expression (natural protein)
chain: B1 chain
notes: PhoP, S. Typhimurium strain 14028S, His-tagged and purified from Salmonella; also called PhoP from control cells; PhoP isolated from the wild-type strain; source: S. Typhimurium with an endogenous level of cheR expression, purified (His tag); not shown: His6, C-terminal, kept
With B3, the binding result in data set [3] is “binds”.

B4: PhoP D9A variant (natural protein)
chain: B1 chain with D9A
notes: PhoP, S. Typhimurium strain 14028S, with D9A; source: E. coli BL21, purified (Ni-NTA); not shown: His6, C-terminal, kept
For the molecule B4, the binding result in data set [3] is given as “binds”.

B5: PhoP E107A variant (natural protein)
chain: B1 chain with E107A
notes: PhoP, S. Typhimurium strain 14028S, with E107A; source: E. coli BL21, purified (Ni-NTA); not shown: His6, C-terminal, kept
With B5, the binding result in data set [3] is given as “binds”.
